According to the supplement of paper PMC9876800:

Tested on: peptide library, one residue held at a place counted from the S/T acceptor
Experiment: relative phosphorylation of the sub-library (ratio to the mean residue at this position); higher = residue favoured
Settings: human
In short: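 In 384-well plates, purified recombinant kinases (human or orthologue constructs) were incubated for 90 min under kinase-specific conditions with 50 μM biotinylated degenerate peptide sub-libraries and 50 μM ATP spiked with γ-32P-ATP. Each sub-library fixed a single residue at one position around a central Ser/Thr. Relative sub-library phosphorylation, measured by phosphorimaging and densitometry of streptavidin membrane spots, is given as a ratio to the mean residue at that position.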

Sequence of NEK7, construct: Full length (Q8TDX7 whole entry, looked up): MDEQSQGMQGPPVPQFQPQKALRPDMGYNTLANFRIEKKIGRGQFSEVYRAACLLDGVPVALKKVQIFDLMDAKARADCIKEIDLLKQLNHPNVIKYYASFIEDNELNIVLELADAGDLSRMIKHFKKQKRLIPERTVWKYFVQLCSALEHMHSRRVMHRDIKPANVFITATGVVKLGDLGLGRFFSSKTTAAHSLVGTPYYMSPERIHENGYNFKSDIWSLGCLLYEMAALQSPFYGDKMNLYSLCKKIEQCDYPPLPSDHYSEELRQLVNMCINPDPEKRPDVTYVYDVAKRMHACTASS
Sequence of MYO3B, construct: aa1-326 (Q8WXR4 1-326, looked up): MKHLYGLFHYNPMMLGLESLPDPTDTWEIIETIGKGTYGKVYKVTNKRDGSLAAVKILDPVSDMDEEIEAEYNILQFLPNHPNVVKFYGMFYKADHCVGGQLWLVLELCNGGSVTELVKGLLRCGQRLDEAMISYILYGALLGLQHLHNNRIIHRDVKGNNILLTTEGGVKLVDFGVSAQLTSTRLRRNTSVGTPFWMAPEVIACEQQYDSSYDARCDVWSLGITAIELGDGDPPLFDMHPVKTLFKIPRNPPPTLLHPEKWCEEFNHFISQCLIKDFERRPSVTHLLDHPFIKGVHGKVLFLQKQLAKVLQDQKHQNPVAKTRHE
Sequence of HIPK1, construct: aa158-555 (Q86Z02 158-555, looked up): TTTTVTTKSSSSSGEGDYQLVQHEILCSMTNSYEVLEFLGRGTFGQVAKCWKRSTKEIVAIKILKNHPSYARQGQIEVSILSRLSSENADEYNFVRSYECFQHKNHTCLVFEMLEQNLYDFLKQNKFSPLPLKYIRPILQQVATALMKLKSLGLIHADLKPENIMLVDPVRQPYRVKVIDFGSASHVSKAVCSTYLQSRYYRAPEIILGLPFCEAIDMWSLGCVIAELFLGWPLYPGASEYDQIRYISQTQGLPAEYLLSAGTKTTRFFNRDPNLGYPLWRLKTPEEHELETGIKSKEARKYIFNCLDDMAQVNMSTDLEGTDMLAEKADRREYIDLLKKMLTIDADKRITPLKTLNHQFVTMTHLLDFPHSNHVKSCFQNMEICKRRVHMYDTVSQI

HIPK1, construct: aa158-555 (from UniProt Q86Z02)
relative phosphorylation
Settings | at +1 | at +2 | at +3 | at +4 | at -1 | at -2 | at -3 | at -4 | at -5
A fixed | 0.711 | 1.04 | 0.979 | 0.83 | 1.21 | 2.16 | 0.93 | 1 | 0.905
D fixed | 0.165 | 0.679 | 0.59 | 0.795 | 0.471 | 0.278 | 0.49 | 0.719 | 0.716
E fixed | 0.193 | 0.512 | 0.51 | 0.687 | 0.485 | 0.283 | 0.464 | 0.762 | 0.634
F fixed | 0.264 | 1.15 | 0.885 | 1.04 | 0.567 | 0.398 | 0.342 | 0.668 | 0.793
G fixed | 0.896 | 1.37 | 1.19 | 1.14 | 1.26 | 0.872 | 1.27 | 1.13 | 0.991
H fixed | 0.354 | 1.23 | 1.17 | 1.07 | 0.881 | 0.454 | 0.698 | 0.884 | 1.06
I fixed | 0.421 | 0.708 | 0.92 | 0.978 | 0.536 | 0.999 | 0.42 | 0.781 | 0.883
K fixed | 0.503 | 1.42 | 0.886 | 1.12 | 1.75 | 0.898 | 1.13 | 1.3 | 1.26
L fixed | 0.329 | 0.928 | 1.2 | 1 | 0.682 | 0.862 | 0.525 | 0.876 | 0.84
M fixed | 0.272 | 0.815 | 0.972 | 1.04 | 0.916 | 0.607 | 0.484 | 0.793 | 0.742
N fixed | 0.318 | 1.04 | 0.826 | 1.01 | 0.761 | 0.735 | 0.677 | 0.704 | 0.928
P fixed | 8.97 | 1.1 | 2.4 | 1.14 | 1.91 | 2.58 | 1.07 | 1.22 | 1.21
Q fixed | 0.399 | 0.888 | 0.885 | 0.981 | 0.967 | 0.605 | 0.71 | 0.856 | 0.89
R fixed | 1.85 | 1.55 | 1.06 | 1.13 | 2.49 | 3.33 | 6.49 | 3.08 | 2.25
V fixed | 0.793 | 0.755 | 0.863 | 0.954 | 0.645 | 1.17 | 0.47 | 0.706 | 0.794
W fixed | 0.284 | 0.966 | 0.886 | 1.16 | 0.673 | 0.389 | 0.426 | 0.784 | 0.825
Y fixed | 0.276 | 0.848 | 0.772 | 0.917 | 0.801 | 0.381 | 0.397 | 0.723 | 1.27
pThr fixed | 0.387 | 0.46 | 0.541 | 0.711 | 0.485 | 1.05 | 0.712 | 0.94 | 1.05
pTyr fixed | 0.453 | 0.444 | 0.772 | 0.757 | 0.599 | 0.431 | 0.644 | 0.648 | 1.04

MAP2K2, construct: aa306-end (from UniProt P36507)
relative phosphorylation
Settings | at +1 | at +2 | at +3 | at +4 | at -1 | at -2 | at -3 | at -4 | at -5
A fixed | 0.617 | 1.06 | 0.962 | 0.933 | 0.978 | 0.833 | 1.06 | 0.961 | 1.08
D fixed | 1.32 | 0.532 | 0.643 | 0.706 | 0.63 | 0.982 | 0.744 | 1.13 | 1.01
E fixed | 0.689 | 0.364 | 0.589 | 0.62 | 0.606 | 0.819 | 0.803 | 1.01 | 0.781
F fixed | 1.49 | 0.907 | 1.05 | 0.995 | 1.19 | 2.06 | 1.51 | 1.05 | 0.965
G fixed | 0.624 | 0.787 | 1.22 | 1.08 | 1.35 | 0.713 | 0.737 | 1.14 | 1.07
H fixed | 0.836 | 3.02 | 1.3 | 1.08 | 1.01 | 2.51 | 0.945 | 1.04 | 0.996
I fixed | 1.55 | 0.963 | 1.02 | 0.968 | 0.735 | 0.626 | 1.18 | 0.808 | 0.73
K fixed | 0.453 | 0.771 | 0.833 | 0.882 | 1.03 | 0.674 | 0.649 | 0.799 | 1.01
L fixed | 1.46 | 0.795 | 0.981 | 0.927 | 1.49 | 0.763 | 1.4 | 0.984 | 0.789
M fixed | 1.89 | 1.13 | 0.865 | 0.862 | 1.32 | 1.09 | 1.58 | 1.05 | 0.943
N fixed | 0.537 | 0.756 | 0.744 | 0.755 | 0.696 | 0.768 | 0.63 | 0.921 | 0.962
P fixed | 0.347 | 0.681 | 0.947 | 1.02 | 0.494 | 0.46 | 0.691 | 0.857 | 1.11
Q fixed | 0.625 | 0.8 | 0.742 | 0.79 | 0.842 | 0.705 | 0.585 | 0.835 | 0.819
R fixed | 0.474 | 0.847 | 0.926 | 0.985 | 1.34 | 0.966 | 0.787 | 0.929 | 1.1
V fixed | 1.03 | 0.875 | 0.933 | 0.74 | 0.874 | 0.562 | 0.885 | 0.789 | 1.14
W fixed | 1.36 | 1.18 | 1.51 | 1.96 | 1.08 | 1.29 | 1.38 | 1.38 | 1.25
Y fixed | 1.7 | 1.54 | 1.73 | 1.69 | 1.34 | 1.18 | 1.44 | 1.31 | 1.25
pThr fixed | 0.823 | 0.505 | 0.611 | 0.607 | 0.404 | 0.431 | 0.575 | 0.741 | 0.914
pTyr fixed | 0.886 | 0.37 | 0.827 | 0.673 | 0.592 | 0.431 | 0.675 | 0.795 | 0.953

MYO3B, construct: aa1-326 (from UniProt Q8WXR4)
relative phosphorylation
Settings | at +1 | at +2 | at +3 | at +4 | at -1 | at -2 | at -3 | at -4 | at -5
A fixed | 0.835 | 0.824 | 0.907 | 0.917 | 1.11 | 0.997 | 1.06 | 0.977 | 1.15
D fixed | 0.195 | 0.346 | 0.286 | 0.408 | 0.679 | 0.489 | 0.538 | 0.954 | 0.81
E fixed | 0.182 | 0.272 | 0.222 | 0.412 | 0.633 | 0.316 | 0.576 | 0.933 | 0.843
F fixed | 0.583 | 0.641 | 0.831 | 0.682 | 0.908 | 1.44 | 1.07 | 1.05 | 1.01
G fixed | 0.936 | 0.951 | 1.04 | 1.24 | 1.61 | 1.32 | 1.8 | 1.33 | 1.38
H fixed | 0.628 | 1.1 | 1.01 | 1.03 | 1.18 | 1.25 | 1.13 | 1.14 | 1.08
I fixed | 1.1 | 0.515 | 0.595 | 0.683 | 0.38 | 0.578 | 0.728 | 0.783 | 0.787
K fixed | 2.3 | 2.56 | 2.29 | 2.28 | 0.958 | 0.787 | 0.946 | 1.04 | 1.14
L fixed | 1.53 | 0.724 | 0.838 | 0.663 | 0.945 | 0.713 | 0.901 | 0.82 | 0.757
M fixed | 1.57 | 0.756 | 0.71 | 0.714 | 1.33 | 0.857 | 1.11 | 0.939 | 0.947
N fixed | 0.754 | 0.835 | 0.911 | 1.03 | 1.28 | 0.95 | 0.939 | 0.96 | 0.899
P fixed | 0.276 | 0.96 | 1.18 | 1.05 | 0.601 | 0.622 | 0.891 | 0.953 | 1.27
Q fixed | 1.08 | 0.752 | 0.736 | 0.988 | 1.04 | 0.816 | 0.823 | 0.946 | 0.856
R fixed | 2.66 | 3.56 | 3.06 | 2.38 | 1.58 | 1.72 | 1.18 | 1.13 | 1.15
V fixed | 0.809 | 0.552 | 0.671 | 0.702 | 0.495 | 0.597 | 0.582 | 0.769 | 0.879
W fixed | 0.791 | 0.737 | 0.807 | 1 | 0.856 | 1.52 | 1.28 | 1.17 | 0.993
Y fixed | 0.781 | 0.919 | 0.902 | 0.826 | 1.41 | 2.03 | 1.44 | 1.1 | 1.04
pThr fixed | 0.449 | 0.389 | 0.599 | 0.309 | 0.335 | 0.494 | 0.678 | 0.852 | 0.895
pTyr fixed | 0.308 | 0.266 | 0.551 | 0.392 | 1.24 | 0.596 | 0.873 | 0.888 | 1.1

NEK7, construct: Full length (from UniProt Q8TDX7)
relative phosphorylation
Settings | at +1 | at +2 | at +3 | at +4 | at -1 | at -2 | at -3 | at -4 | at -5
A fixed | 0.653 | 1.05 | 0.923 | 0.86 | 1.05 | 1.12 | 0.975 | 1.02 | 1.07
D fixed | 0.327 | 0.61 | 0.66 | 0.722 | 1.29 | 2.31 | 0.65 | 1.91 | 1.83
E fixed | 0.267 | 0.376 | 0.597 | 0.747 | 1.42 | 1.8 | 0.583 | 1.28 | 1.43
F fixed | 1.54 | 0.717 | 1.21 | 0.846 | 0.646 | 0.87 | 1.94 | 0.839 | 0.989
G fixed | 0.827 | 1.12 | 1.28 | 1.18 | 0.713 | 1.4 | 0.853 | 1.05 | 0.972
H fixed | 1.16 | 1.38 | 1.21 | 1.11 | 1.12 | 1.3 | 0.755 | 1.03 | 1.06
I fixed | 1.28 | 0.812 | 0.957 | 0.919 | 0.569 | 0.433 | 0.494 | 0.647 | 0.831
K fixed | 0.588 | 1.47 | 1.24 | 1.3 | 1.34 | 0.625 | 0.446 | 0.82 | 0.842
L fixed | 1.18 | 0.549 | 1.1 | 0.895 | 1.02 | 0.718 | 2.39 | 0.832 | 0.771
M fixed | 1.78 | 0.693 | 0.899 | 0.948 | 1.03 | 0.973 | 1.46 | 0.823 | 0.703
N fixed | 1 | 1.63 | 0.833 | 0.907 | 1.22 | 1.47 | 0.705 | 1.35 | 1.15
P fixed | 0.242 | 0.691 | 0.703 | 1.09 | 0.234 | 0.356 | 1.3 | 0.918 | 0.886
Q fixed | 1.33 | 0.933 | 0.813 | 0.986 | 1.52 | 0.951 | 0.628 | 0.889 | 0.938
R fixed | 0.865 | 2.1 | 1.08 | 1.16 | 1.21 | 0.626 | 0.652 | 0.959 | 0.878
V fixed | 1.05 | 0.905 | 0.889 | 0.846 | 0.901 | 0.372 | 0.538 | 0.613 | 0.8
W fixed | 1.47 | 0.94 | 1.58 | 1.46 | 0.908 | 0.859 | 1.4 | 1.23 | 1.1
Y fixed | 1.44 | 1.02 | 1.02 | 1.02 | 0.796 | 0.822 | 1.23 | 0.78 | 0.754
pThr fixed | 0.701 | 0.607 | 0.62 | 0.842 | 0.624 | 1 | 0.973 | 1.15 | 0.979
pTyr fixed | 0.816 | 0.62 | 0.836 | 0.681 | 1.68 | 1.6 | 1.12 | 0.861 | 1.12
